From patent US20100041597A1, “PEPTIDES TARGETED TO PROTEIN KINASE C ISOFORMS AND USES THEREOF” (priority 2005, published 2010)

How the values were obtained:
[1] = biological target: PKC-βI (Homo sapiens, UniProt P05771); assay: ELISA-based competitive binding assay with purified PKC isoform; parameters: key to Affinity for PKC isoform βI: —: no detectable affinity; Low to very low affinity at 10X or 20X or both PRE concentrations in at least one cell line in the cell extract assay; Low affinity in purified isoform assay.; Moderate affinity at 10X or 20X or both PRE concentrations in at least one cell line in the cell extract assay.; High affinity at 10X or 20X or both PRE concentrations in at least one cell line in the cell extract assay; High affinity in purified isoform assay; details: for inhibition at 50 µM / inhibition at 100 µM / inhibition at 200 µM / calculated binding capacity (100-% n) after subtraction of the DMSO apparent binding capacity: purified PKC-βI; for inhibition at 50 µM / inhibition at 100 µM / inhibition at 200 µM: read-out: calculated binding capacity (100-% n) after subtraction of the DMSO apparent binding capacity; for Affinity for PKC isoform βI: Purified isoform, Table 20; for targeting of PKC-βI: purified isoform, Tables 14-19
Chain of PKC-βI (P05771 whole entry, canonical isoform): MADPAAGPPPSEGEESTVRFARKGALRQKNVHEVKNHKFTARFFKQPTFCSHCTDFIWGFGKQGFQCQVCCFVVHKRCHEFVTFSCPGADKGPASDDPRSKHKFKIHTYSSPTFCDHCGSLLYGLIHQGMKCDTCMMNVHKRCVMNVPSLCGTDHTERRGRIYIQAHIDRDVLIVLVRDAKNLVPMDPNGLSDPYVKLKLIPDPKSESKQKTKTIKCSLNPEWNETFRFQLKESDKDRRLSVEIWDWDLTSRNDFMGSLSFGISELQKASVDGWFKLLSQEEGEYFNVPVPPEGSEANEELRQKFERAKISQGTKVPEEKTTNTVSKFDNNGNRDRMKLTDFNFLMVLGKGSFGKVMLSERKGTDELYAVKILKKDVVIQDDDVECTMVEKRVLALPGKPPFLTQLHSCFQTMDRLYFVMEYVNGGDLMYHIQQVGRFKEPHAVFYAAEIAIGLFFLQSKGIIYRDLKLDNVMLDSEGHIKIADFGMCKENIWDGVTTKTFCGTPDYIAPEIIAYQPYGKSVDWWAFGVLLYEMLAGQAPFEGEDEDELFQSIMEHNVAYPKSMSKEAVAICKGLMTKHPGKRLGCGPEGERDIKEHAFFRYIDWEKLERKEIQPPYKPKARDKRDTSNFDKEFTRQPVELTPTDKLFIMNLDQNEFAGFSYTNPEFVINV
Protocol: Peptides PRE 1, 2, 3, 4, 5, 6, 7, 8, 9, 10, 11, 12 and 13 (see Table 3) were tested for their ability to interfere with binding of PKC isoform-specific antibodies to their target PKC isoforms using a competitive binding assay and purified PKC isoforms.
Procedure: Competitive binding was assessed using a 96 well plate ELISA-based assay as described below.
Greiner 96 well ELISA plates were coated with the appropriate PKC isoform diluted in PBSN (PBS with Calcium/Magnesium+0.05% Sodium azide w/w). 50 μL/well at 250 ng/mL was used. Control wells contained PBSN only. Plates were incubated overnight at 4° C.
The plates were washed 3 times with 200 μL of dH2O per well, then 100 μL of blocking solution was added per well and the plate incubated for 1 h at 37° C. The washing steps with dH2O were repeated and 50 μL of the appropriate PRE solution (PRE stock solution [20 mM in DMSO] diluted in PBSN) was added and the plate incubated for 1 h at room temperature.
After incubation, 5 μL of 1.1:400 anti-PKC (isoform specific antibody) was added per well (to provide a final concentration of 1:4000). For PKC-epsilon, 1.1:800 dilution was used and for PKC-zeta a 1.1:100 dilution was used due to high and low binding affinity, respectively. The plates were then incubated 1 h at room temperature, followed by washing with dH2O as described above.
50 μL of 1:1000 dilution of Alkaline Phosphatase (AP) conjugated antibody (anti-rabbit for all except zeta, which was anti-goat) was then added and the plate incubated for 1 h at room temperature. Washing with dH2O was then repeated. Finally, 100 μL of pNPP solution in pNPP buffer (2 mM MgCl2, 100 mM Sodium bicarbonate in water, pH 9.8) was added to all wells and incubated for 8 minutes for α, βI, βII ε, and ζ, or for 15-20 mins for […] (until sufficient coloration is observed). The reaction was stopped by addition of Stop solution (2N NaOH) and the absorbance at 405 nm was read on a Galaxy Plate reader.
Controls were PKC without PRE; blank controls, and controls containing the final concentrations of DMSO used for solubilizing the PREs. The non-specific binding capacity related to DMSO was also measured.
The antibodies used were as follows: anti-PKC α (Cat. No. SC-208); anti-PKC βI (Cat. No. SC-209); anti-PKC βII (Cat. No. SC-210); anti-PKC δ (Cat. No. SC-213); anti-PKC ε (Cat. No. SC-214); anti-PKC ζ (Cat. No. SC-216-G) (all from Santa Cruz Biotechnology, Inc.). The AP-conjugated antibodies were obtained from Jackson Immuno Research Laboratories (West Grove, Pa.).
Calculations: The OD values measured at 405 nm represent the free PKC coated per well.
OD405 PKC alone−Blank OD405 of each sample=OD405 coated isoform
(OD405 of sample X/OD405 coated isoform)×100=% n that represents the percentage of X binding compared to control.
100-% n measures the relative binding capacity of X towards the tested isoform.
The apparent binding capacity of the DMSO samples was then subtracted from X binding capacity.
All measurements were made in triplicate and the values in the table represent the averaged calculated binding capacity values after subtraction of the DMSO apparent binding capacity (averaged from 12 values, respectively 10.80, 11.20 and 16.40 corresponding to the concentrations of DMSO used to dilute the […] at 200, 100 and 50 μM respectively). The results allow for quantitative comparison of the binding capacity of each PRE towards an individual isoform within each table, but not among isoforms due to differences in sensitivity of the specific antibodies toward the secondary antibody. This applies particularly to PKC-delta. As noted above, the colour development duration was increased 2-3 times and, as a result, the OD405 measurements may be overestimated for this isoform.

[2] = biological target: PKC-δ (Homo sapiens, UniProt Q05655); assay: Competitive binding assay using cell extracts (Western blot); parameters: cytoplasmic extracts from different cell lines expressing appropriate PKC isoforms; endogenous in cells; host or cells: H661, MDAMB231, LS180, T24 (human, from ATCC); key to Affinity for PKC isoform δ: —: no detectable affinity; Low to very low affinity at 10X or 20X or both PRE concentrations in at least one cell line in the cell extract assay; Low affinity in purified isoform assay.; Moderate affinity at 10X or 20X or both PRE concentrations in at least one cell line in the cell extract assay.; High affinity at 10X or 20X or both PRE concentrations in at least one cell line in the cell extract assay; High affinity in purified isoform assay; details: for Affinity for PKC isoform δ: Cell extract, PRE at 10X, 20X antibody concentration, Table 20
Chain of PKC-δ (Q05655 whole entry, canonical isoform): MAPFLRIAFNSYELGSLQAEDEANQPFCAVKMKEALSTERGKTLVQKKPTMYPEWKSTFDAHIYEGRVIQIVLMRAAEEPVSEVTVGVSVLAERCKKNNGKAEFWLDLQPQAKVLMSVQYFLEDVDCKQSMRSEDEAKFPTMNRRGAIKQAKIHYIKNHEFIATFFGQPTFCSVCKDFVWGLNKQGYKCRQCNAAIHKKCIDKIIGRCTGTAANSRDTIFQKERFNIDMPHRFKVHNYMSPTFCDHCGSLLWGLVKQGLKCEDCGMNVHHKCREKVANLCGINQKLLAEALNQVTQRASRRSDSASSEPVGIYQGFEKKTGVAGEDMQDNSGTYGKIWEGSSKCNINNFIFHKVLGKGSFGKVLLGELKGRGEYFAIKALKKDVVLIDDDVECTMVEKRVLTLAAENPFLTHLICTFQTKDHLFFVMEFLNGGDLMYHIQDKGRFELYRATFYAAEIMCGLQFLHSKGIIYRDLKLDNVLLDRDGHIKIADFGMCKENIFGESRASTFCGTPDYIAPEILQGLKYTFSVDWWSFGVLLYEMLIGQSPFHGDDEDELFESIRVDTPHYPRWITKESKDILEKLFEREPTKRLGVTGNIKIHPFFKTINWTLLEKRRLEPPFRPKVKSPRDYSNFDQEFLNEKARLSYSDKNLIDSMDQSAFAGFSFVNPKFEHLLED
Protocol: Binding efficiency and specificity of the peptides PRE 2, 3, 4, 5, 6, 7, 8, 9, 10, 11, 12 and 13 (see Table 3) was also tested using cytoplasmic extracts from different cell lines expressing appropriate PKC isoforms as described for Example 1. Briefly, the protein cytoplasmic extracts were separated by electrophoresis and transferred onto nitrocellulose membranes by standard Western blotting procedures. The bands on the Western blots were detected with matching primary antibodies and alkaline phosphatase conjugated secondary antibody. The bands were then scanned and the relative density measurements obtained.
This procedure to assess the binding characteristics of the PREs is based on competition binding of the PRE with the primary anti-isoform PKC specific antibodies. The lower the measured band density, the greater the binding of the PRE to the PKC isoform. The PREs were added at 10 and 20 times (10×, 20×) the primary antibody concentration, according to classical competition between antigenic peptide and primary antibody. The following cell lines (obtained from the ATCC) were used: H661—NCI human lung carcinoma NSCLC; MDAMB231—human highly invasive breast cancer cell line from pleural effusion; LS180—human colon adenocarcinoma; LnCAP—human prostate adenocarcinoma; CCD16Lu—human lung fibroblasts; Du145—human prostate carcinoma brain metastasis, and T24—human bladder carcinoma.
In these cases, the 20× band density figures relative to control and 10× values were reliable.

## Ac-AKGIQEVKGGDAQNLIGISI-NH2 [PRE 3]
[1]; PRE 50 μM
  inhibition at 50 µM: 26%
[1]; PRE 100 μM
  inhibition at 100 µM: 22.5%
[1]; PRE 200 μM
  inhibition at 200 µM: 23%
[1]
  Affinity for PKC isoform βI: H
  targeting of PKC-βI: targeted most strongly
[2]
  Affinity for PKC isoform δ: H

## Ac-AKGIQEVKGGKDAQNLIGISI-NH2 [PRE 5]
[1]; PRE 50 μM
  inhibition at 50 µM: 0%
[1]; PRE 100 μM
  inhibition at 100 µM: 0%
[1]; PRE 200 μM
  inhibition at 200 µM: 0%
[1]
  Affinity for PKC isoform βI: —
[2]
  Affinity for PKC isoform δ: —

## Ac-ISIGILNQADK-NH2 [PRE 10]
[1]; PRE 50 μM
  calculated binding capacity (100-% n) after subtraction of the DMSO apparent binding capacity: 3.77
[1]; PRE 100 μM
  calculated binding capacity (100-% n) after subtraction of the DMSO apparent binding capacity: 4.35
[1]
  Affinity for PKC isoform βI: —
[2]
  Affinity for PKC isoform δ: H

## Ac-ISIGILQNADK-NH2 [PRE 7]
[1]
  Affinity for PKC isoform βI: —
[2]
  Affinity for PKC isoform δ: L

## Ac-KDANQLIGISI-NH2 [PRE 6]
[1]
  Affinity for PKC isoform βI: L
[2]
  Affinity for PKC isoform δ: M/H

## Ac-KDAQNLI-NH2 [PRE 12]
[1]
  Affinity for PKC isoform βI: —
[2]
  Affinity for PKC isoform δ: —

## Ac-KDAQNLIGISI-NH2 [PRE 4, Ac-KDAQNLIGISI-NH2]
[1]; PRE 50 μM
  inhibition at 50 µM: 6.02%
[1]; PRE 100 μM
  inhibition at 100 µM: 15.7%
[1]; PRE 200 μM
  inhibition at 200 µM: 7.46%
[1]
  Affinity for PKC isoform βI: L
[2]
  Affinity for PKC isoform δ: —
[2]; cell extracts
  affinity for PKC-δ: none for PKC-6

## Ac-RDAQNLI-NH2 [PRE 13]
[1]
  Affinity for PKC isoform βI: —
[2]
  Affinity for PKC isoform δ: —

## Ac-RDAQNLIGISI-NH2 [PRE 11]
[1]; PRE 50 μM
  calculated binding capacity (100-% n) after subtraction of the DMSO apparent binding capacity: 9.86
[1]; PRE 100 μM
  calculated binding capacity (100-% n) after subtraction of the DMSO apparent binding capacity: 14.23
[1]; PRE 200 μM
  calculated binding capacity (100-% n) after subtraction of the DMSO apparent binding capacity: 12.5
[1]
  Affinity for PKC isoform βI: —
[2]
  Affinity for PKC isoform δ: —

## Ac-isigilgnadk-NH2 [PRE 9]
[1]; PRE 50 μM
  calculated binding capacity (100-% n) after subtraction of the DMSO apparent binding capacity: 11.53
[1]; PRE 100 μM
  calculated binding capacity (100-% n) after subtraction of the DMSO apparent binding capacity: 8.82
[1]; PRE 200 μM
  calculated binding capacity (100-% n) after subtraction of the DMSO apparent binding capacity: 5.72
[1]
  Affinity for PKC isoform βI: L
[2]
  Affinity for PKC isoform δ: H

## ILEDKGGDAQNLIGISI [PRE 8]
[1]
  Affinity for PKC isoform βI: —
[2]
  Affinity for PKC isoform δ: L

## RRKKGGKDFVVKR [PRE 1]
[1]
  Affinity for PKC isoform βI: H
  targeting of PKC-βI: targeted most strongly
[2]
  Affinity for PKC isoform δ: —
